# Data: paper PMC6834283, “Duplicate divergence of two bacterial small heat shock proteins reduces the demand for Hsp70 in refolding of substrates” (PLoS Genetics, 2019)
# B1: IbpA from Escherichia coli (natural protein, E. coli, UniProt P0C054 1-137, looked up)
# chain: MRNFDLSPLYRSAIGFDRLFNHLENNQSQSNGGYPPYNVELVDENHYRIAIAVAGFAESELEITAQDNLLVVKGAHADEQKERTYLYQGIAERNFERKFQLAENIHVRGANLVNGLLYIDLERVIPEAKKPRRIEIN
# notes: small heat shock protein IbpA, E. coli; Forms large undefined oligomers; also called IbpAEc; source: purified as described previously [23]
# B2: IbpABEc (IbpAEc and IbpBEc used together, two-sHsp system of E. coli) (complex)
# chain 1: MRNFDLSPLYRSAIGFDRLFNHLENNQSQSNGGYPPYNVELVDENHYRIAIAVAGFAESELEITAQDNLLVVKGAHADEQKERTYLYQGIAERNFERKFQLAENIHVRGANLVNGLLYIDLERVIPEAKKPRRIEIN
# chain 2: MRNFDLSPLMRQWIGFDKLANALQNAGESQSFPPYNIEKSDDNHYRITLALAGFRQEDLEIQLEGTRLSVKGTPEQPKEEKKWLHQGLMNQPFSLSFTLAENMEVSGATFVNGLLHIDLIRNEPEPIAAQRIAISERPALNS
# notes: small heat shock protein IbpA, E. coli; as m1; small heat shock protein IbpB, E. coli; as m2; source: the two purified proteins (as described previously [23]) mixed at about 1:2
# Tests used:
# [1] = molecular target: T1, firefly luciferase, thermally denatured (firefly, UniProt P08659 1-550 = luciferase); assay: co-sedimentation; sHsp-substrate assemblies isolated on a glycerol gradient, incubated 45 min at room temperature with buffer or with limiting or saturating DnaK/DnaJ/GrpE, then a second 10-60% glycerol gradient; pooled top, middle and bottom fractions by Western blot with IbpA antibodies; details: both partners purified
# T1 construct: firefly luciferase (Promega), used as the aggregating substrate; Denatured at 44°C for 10 min in the presence of the sHsps; The partner is the unfolded, aggregating protein, not the native enzyme; source: bought: Promega
# [2] = molecular target: T2, C-His-tagged luciferase, aggregated on the BLI sensor (firefly, UniProt P08659 1-550 = luciferase); assay: BLI; aggregated C-His-tagged luciferase immobilised on Ni-NTA sensors (BLItz); 5 μM sHsps (1.66 μM IbpAEc with 3.34 μM IbpBEc for IbpABEc) heat-activated at 44°C for 5 min; room temperature, buffer D (50 mM Tris-HCl pH 7.5, 150 mM KCl, 20 mM Mg acetate, 2 mM DTT); 10 min binding, 1 h dissociation in buffer; details: both partners purified
# T2 construct: firefly luciferase with a C-terminal His tag, used only in the BLI experiments; An anchoring layer was immobilised in 6 M urea on Ni-NTA sensors; A top aggregate layer was then formed at 44°C for 10 min; also called aggregated luciferase; immobilized luciferase aggregates; source: purified (Ni-NTA agarose); not shown: His tag, C-terminal, kept
# T2 sequence (P08659 whole entry): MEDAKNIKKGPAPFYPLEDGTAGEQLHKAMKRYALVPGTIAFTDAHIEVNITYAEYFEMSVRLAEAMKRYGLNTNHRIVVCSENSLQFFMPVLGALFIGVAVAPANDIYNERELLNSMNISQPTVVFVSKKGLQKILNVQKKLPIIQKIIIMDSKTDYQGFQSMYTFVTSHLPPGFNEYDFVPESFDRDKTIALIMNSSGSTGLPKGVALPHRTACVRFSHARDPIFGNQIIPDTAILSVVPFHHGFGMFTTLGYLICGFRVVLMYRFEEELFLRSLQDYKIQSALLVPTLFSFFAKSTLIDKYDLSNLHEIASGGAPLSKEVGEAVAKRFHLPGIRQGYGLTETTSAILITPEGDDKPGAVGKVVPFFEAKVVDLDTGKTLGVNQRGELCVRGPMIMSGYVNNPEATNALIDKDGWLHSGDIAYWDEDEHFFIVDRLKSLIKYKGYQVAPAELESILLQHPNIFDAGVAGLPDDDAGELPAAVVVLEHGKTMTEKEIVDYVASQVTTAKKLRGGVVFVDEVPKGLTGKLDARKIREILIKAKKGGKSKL
# T1 sequence (P08659 whole entry): as above
binder,measurement,setting,value
B1,binding result,[1],binds
same,binding result,[2],binds
B2,binding result,[1],binds
same,binding result,[2],binds
